The target in experiment [1] is T1, human CD40 expressed on the cell surface (human, UniProt P25942 21-277).
T1 construct: whole, on cells; Used for transfected CHO-K cells, for transfected Jurkat reporter cells (Met1-Gln277) and for the natural CD40 on Ramos cells and iDC; also called CHO-K-huCD40 cells; CHO cells expressing CD40
Put plainly: flow cytometry on CHO-K-huCD40 cells, APC anti-human IgG secondary antibody. Here is the method:
(§1) 100 μL of diluted anti-CD40 candidate antibody prepared in example 4.3 was added to the 96-well plate. After incubation at 4° C. for 30 min, the cells were washed 5 times with a FACS buffer (PBS+5% FBS+2% BSA), added with 100 μL of APC-labeled anti-human IgG secondary antibody, and then incubated at 4° C. for 30 min. The cells were then washed and tested by flow cytometry.
(In flow cytometry, cells or beads pass a laser one at a time.)

The target of experiment [2] is T2, P17-His protein (human CD40 antigen) (human, UniProt P25942 21-193, limits assumed).
T2 construct: also called human CD40 antigen (P17-His)
As to the kind of experiment: BLI (Fortebio Octet RED96), antibody on Protein A sensor, P17-His 5-40 nM. Here is the method:
In this example, the affinity of C8 parent antibody (C8-WT) and affinity variant antibody for human CD40 antigen (P17-His) was detected using an Fortebio Octet RED96 instrument.
Material preparation: 1 g of BSA and 500 μL of Tween 20 were added to 1000 mL of 1×PBS and mixed uniformly. The mixture was filtered, and then subpackaged and stored. 0.1 mL of glycine solution (0.1 M, pH 2.0) was pipetted, 0.9 mL of ultrapure water was added, and the mixture was mixed uniformly. The antibodies were diluted to 10 μg/mL with a KB buffer, and the antigens were diluted with a KB buffer to serial concentration gradients, i.e., 40 nM, 20 nM, 10 nM, 5 nM and 0 nM.
Experiment procedure: The sample plate (GreinierBio, PN655209) was tested after a sensor (Protein A sensor) was pre-wetted in the dark for at least 10 min, and after confirming the accuracy, the test was performed according to the preset programs. KB buffer was added at 200 μL/well to the wells of columns 1, 10 and 12 of sample plate 1; the glycine solution (0.01 M, pH 2.0) was added to the wells of column 11; the prepared sample solution was added to the wells of columns 2-8 (5 replicate wells for one sample); and P17-His was sequentially added to the wells of column 9 in a descending order of the concentration.
A general note: In BLI a coated tip is dipped into the sample, and binding shifts an interference pattern.

Experiment [3] has as its target T1, human CD40 expressed on the cell surface. Put plainly: cell-based or functional assay.
Experiment [4] addresses T3, full-length mouse CD40 expressed on CHO-K cells (mouse, UniProt P27512 20-289).
T3 construct: whole, on cells; also called CHO-K-mouseCD40 cells; mouse CD40 antigen
Put plainly: flow cytometry on CHO-K-mouseCD40 cells, FITC anti-human IgG Fc secondary antibody. Here is the method: The cross-reactivity of the affinity variant candidate antibody prepared in example 4.3 to mouse CD40 was tested using artificially constructed CHO-K cells expressing full-length mouse CD40 (Uniprot #P27512) (CHO-K-mouseCD40 cells). The CHO-K cells expressing mouse CD40 were seeded into a 96-well plate at 1.0×10⁵ cells/well. 100 μL of diluted affinity variant candidate antibody and the control antibody (APX005) were added to the 96-well plate, respectively. […] The cells were then washed and tested by flow cytometry.

The target in experiment [5] is T1, human CD40 expressed on the cell surface. As to the kind of experiment: flow cytometry on CHO-K-huCD40 cells, APC anti-human IgG Fc secondary antibody. Here is the method:
(§2) To confirm the binding activity and cross-reactivity of the full-length anti-CD40 antibody prepared in example 1.4 of the present invention to CD40, CHO-K-huCD40 cells or CHO-K-cynoCD40 cells were seeded into a 96-well plate at 1.0×10⁵ cells/well. 100 μL of diluted anti-CD40 candidate antibody prepared in example 1.4 was added to the 96-well plate. […] Then, the cells were washed, and the binding of the full-length anti-CD40 antibody to CD40 molecules expressed on the cell was detected by flow cytometry.

The target of experiment [6] is T4, cynomolgus monkey CD40 expressed on the cell surface (cynomolgus monkey, UniProt G7PG38 21-278).
T4 construct: also called CHO-K-cynoCD40 cells
Put plainly: flow cytometry on CHO-K-cynoCD40 cells, APC anti-human IgG Fc secondary antibody. Here is the method: as §2

Experiment [7] has as its target T3, full-length mouse CD40 expressed on …. Put plainly: flow cytometry on CHO-K-mouseCD40 cells, FITC anti-human IgG Fc secondary antibody. Here is the method: Similarly to example 1.3, CHO-K cells expressing full-length mouse CD40 (Uniprot: P27512) (hereinafter also referred to as “CHO-K-mouseCD40 cells”) were prepared. The cross-reactivity of the candidate C8 full-length anti-CD40 antibody prepared in example 1.4 to mouse CD40 was tested using the CHO-K-mouseCD40 cells. The CHO-K-mouseCD40 cells were seeded into a 96-well plate at 1.0×10⁵ cells/well. 100 μL of diluted anti-CD40 candidate antibody and two control antibodies (Dacetuzumab and APX005) were added to the 96-well plate, respectively. […] The cells were then washed and tested by flow cytometry.
The source holds these as a separate data set.

Experiment [8] addresses T1, human CD40 expressed on the cell surface. As to the kind of experiment: flow cytometry on CHO-K-huCD40 cells, APC anti-human IgG secondary antibody. The procedure: as §1
This is another data set of the same source.

The target in experiment [9] is T4, cynomolgus monkey CD40 expressed on the …. Put plainly: flow cytometry on CHO-K-cynoCD40 cells, APC anti-human F(ab')2 secondary antibody. The procedure:
The CHO-K-huCD40 cells or CHO-K-cynoCD40 cells were seeded into a 96-well plate at 1.0×10⁵ cells/well, and diluted C8 anti-CD40 Fab candidate molecules were added. […] Then, the cells were washed, and the binding of the C8 anti-CD40 Fab candidate molecules to CD40 molecules expressed on the cell surface was detected by flow cytometry (Beckman Coulter).

Experiment [10] deals with T5, P17-Fc fusion protein (human CD40 extracellular domain fused to human IgG1 Fc) (human, UniProt P25942 21-193, limits assumed).
T5 construct: CD40 ECD at the N-terminus of the human IgG1 Fc; expressed in CHO-K cells; also called CD40 ECD-Fc fusion protein; CD40 antigen P17-Fc; not shown: human IgG1 Fc fragment
As to the kind of experiment: ELISA of Fab on P17-Fc.

The values below come from patent publication US20240218071A1 (ANHUI BIOX VISION BIOLOGICAL TECHNOLOGY, published 2024).

Changes are numbered by the printed parent chain. Where two headings read alike, the source gives them in different places.

T2 sequence (P25942 other isoform, or with tags, fused parts or gaps limits assumed): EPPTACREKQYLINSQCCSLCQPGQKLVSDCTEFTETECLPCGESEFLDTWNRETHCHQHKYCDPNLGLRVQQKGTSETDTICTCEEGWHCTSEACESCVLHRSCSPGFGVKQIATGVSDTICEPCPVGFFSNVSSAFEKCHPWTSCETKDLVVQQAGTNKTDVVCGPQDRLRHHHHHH
T1 sequence (P25942 21-277): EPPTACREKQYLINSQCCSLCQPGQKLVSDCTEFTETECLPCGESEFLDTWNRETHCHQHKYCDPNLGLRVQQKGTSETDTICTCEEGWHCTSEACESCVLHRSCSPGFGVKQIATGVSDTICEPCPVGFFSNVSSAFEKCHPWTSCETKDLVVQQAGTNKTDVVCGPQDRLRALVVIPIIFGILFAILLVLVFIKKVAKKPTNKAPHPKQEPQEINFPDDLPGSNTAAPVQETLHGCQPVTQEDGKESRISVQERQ
T3 sequence (P27512 20-289): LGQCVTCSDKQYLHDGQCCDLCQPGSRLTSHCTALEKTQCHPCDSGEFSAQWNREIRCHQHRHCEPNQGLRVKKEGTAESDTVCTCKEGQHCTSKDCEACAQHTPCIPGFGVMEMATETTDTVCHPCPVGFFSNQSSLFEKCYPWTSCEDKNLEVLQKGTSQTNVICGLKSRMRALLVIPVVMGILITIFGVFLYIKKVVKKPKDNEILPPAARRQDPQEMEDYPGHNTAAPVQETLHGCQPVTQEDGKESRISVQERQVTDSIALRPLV
T4 sequence (G7PG38 entry or part of it limits assumed): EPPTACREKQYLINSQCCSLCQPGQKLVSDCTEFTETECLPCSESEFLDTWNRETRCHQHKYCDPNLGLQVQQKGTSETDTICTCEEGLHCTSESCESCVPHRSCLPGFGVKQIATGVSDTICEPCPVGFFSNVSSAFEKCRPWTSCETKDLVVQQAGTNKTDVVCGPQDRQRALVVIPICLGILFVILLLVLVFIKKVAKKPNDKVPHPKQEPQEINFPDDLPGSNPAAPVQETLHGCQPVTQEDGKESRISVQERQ
T5 sequence (P25942 21-193 limits assumed): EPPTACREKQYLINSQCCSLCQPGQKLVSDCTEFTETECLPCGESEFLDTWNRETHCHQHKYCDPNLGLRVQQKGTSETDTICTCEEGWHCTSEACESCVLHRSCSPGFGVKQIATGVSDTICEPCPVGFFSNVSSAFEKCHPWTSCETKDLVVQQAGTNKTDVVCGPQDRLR

B1: C8-11 antibody (antibody, V domains shown)
VH: EVQLLESGGGLVRPGGSLRLSCAASGFTPGSYEMNWVRQAPGKGLEWVSYISSAGETTDYADSVKGRFTVSRDNSKNLLYLQMNSLRAEDTAVYYCARDVFFFDSSGDNGAYGMDVWGQGTMVTVSS
VL: DIQLTQSPSSLTASVGDRVTITCRSSQGIRSSLAWYQQKPGKPPKLLIYGASSLLGGVPSRFSGSGSGTDFTLTISSLQPEDFATYYCQQLNSFPSTFGQGTKLEIK
Turning to B1, in [1], the “EC50 (read off the curve)” value is roughly 2 µg/mL. In [2], this molecule gave a Kd of 9.24 nM, a koff of 0.0148 s⁻¹ and a kon of 1.6e+06 M⁻¹ s⁻¹. Further, the “CD95 expression on Ramos cells without crosslinking agent (FACS)” value in experiment [3] is roughly 10 times weaker than APX005. For the same molecule, the binding result in experiment [4] was “binds”.

B2: C8 clone anti-CD40 full-length antibody (antibody, human IgG1, kappa, V domains shown)
VH: B1 VH with P29F, A54S
VL: DIQLTQSPSSLTASVGDRVTITCRSSQGIRSSLAWYQQKPGKPPKLLIYGASSLEGGVPSRFSGSGSGTDFTLTISSLQPEDFATYYCQQLNSFPSTFGQGTKLEIKR
notes: also called C8-WT; C8 parent antibody
As for B2, the “EC50 (read off the curve)” value in experiment [1] was roughly 0.9 µg/mL; in [5] it was roughly 0.8 µg/mL; in experiment [8], roughly 0.8 µg/mL. Moreover, the binding result in experiment [6] and in experiment [7] was “binds” in each case. Further, the Kd in [2] stood at 19.3 nM. This molecule also yielded a koff in experiment [2] of 0.0164 s⁻¹. In [2], this molecule gave a kon of 853000 M⁻¹ s⁻¹.

B3: C8 clone anti-CD40 Fab molecule (Fab, V domains shown)
VH: B1 VH with P29F, A54S
VL: B1 VL with L55E
notes: Expressed as a Fab fragment in CHO-K cells; also called C8 Fab; C8 clone Fab
For B3, the binding result in [9] is reported as “binds”. The molecule further gave an EC50 in experiment [10] of roughly 0.476 µg/mL.

B4: Dacetuzumab (antibody, V domains shown)
VH: EVQLVESGGGLVQPGGSLRLSCAASGYSFTGYYIHWVRQAPGKGLEWVARVIPNAGGTSYNQKFKGRFTLSVDNSKNTAYLQMNSLRAEDTAVYYCAREGIYWWGQGTLVTVSS
VL: DIQMTQSPSSLSASVGDRVTITCRSSQSLVHSNGNTFLHWYQQKPGKAPKLLIYTVSNRFSGVPSRFSGSGSGTDFTLTISSLQPEDFATYFCSQTTHVPWTFGQGTKVEIKR
As to B4, in experiment [5], the “EC50 (read off the curve)” value is roughly 0.8 µg/mL.

As a reminder, the EC50 (read off the curve) is the concentration needed to bring the measured effect to its halfway point. As a reminder, the Kd is a measure of binding affinity in units of concentration. As a reminder, the koff is a measure of how fast the partners let go of each other. A word on the kon: it is the rate constant with which the complex forms. What is called EC50 is the concentration at which the effect is half-maximal.
